Where two headings read alike, the source gives them in different places.
T1: Lsm2-8 heteroheptameric ring (UniProt P38203;P57743;P40070;P40089;Q06406;P53905;P47093 …)
T1 sequence 1: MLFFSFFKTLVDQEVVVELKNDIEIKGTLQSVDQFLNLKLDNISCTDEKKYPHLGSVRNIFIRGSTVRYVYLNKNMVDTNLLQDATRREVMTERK
T1 sequence 2: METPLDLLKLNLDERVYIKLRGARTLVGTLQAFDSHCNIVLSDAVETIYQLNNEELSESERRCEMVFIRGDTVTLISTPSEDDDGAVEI
T1 sequence 3: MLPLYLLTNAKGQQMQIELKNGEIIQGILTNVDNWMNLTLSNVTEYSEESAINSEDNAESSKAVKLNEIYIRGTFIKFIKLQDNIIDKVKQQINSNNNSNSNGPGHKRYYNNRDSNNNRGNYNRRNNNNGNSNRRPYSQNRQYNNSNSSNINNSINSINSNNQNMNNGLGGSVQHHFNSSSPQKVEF
T1 sequence 4: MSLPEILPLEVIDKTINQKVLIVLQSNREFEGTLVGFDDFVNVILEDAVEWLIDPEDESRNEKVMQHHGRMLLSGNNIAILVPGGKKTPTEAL
T1 sequence 5: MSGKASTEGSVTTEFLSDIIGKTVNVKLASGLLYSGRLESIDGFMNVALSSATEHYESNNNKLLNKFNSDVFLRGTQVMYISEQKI
T1 sequence 6: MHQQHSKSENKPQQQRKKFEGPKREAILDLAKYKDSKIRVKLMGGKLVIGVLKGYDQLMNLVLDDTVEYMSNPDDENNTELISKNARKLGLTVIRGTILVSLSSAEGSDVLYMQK
T1 sequence 7: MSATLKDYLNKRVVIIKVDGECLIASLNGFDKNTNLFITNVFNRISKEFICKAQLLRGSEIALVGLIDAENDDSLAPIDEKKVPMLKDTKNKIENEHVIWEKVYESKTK

B1: U6_WT/U2_WT helix II (dsRNA)
RNA 1: UACAAAGAGAUUUAUUUCGUUUU
RNA 2: ACGAAUCUCUUUGCCUUUUGGCUUAGAU
modifications: 3'-phosphate on U6

Assays:
[1] = target: T1, Lsm2-8 heteroheptameric ring; assay: EMSA
[2] = target: T1, Lsm2-8 heteroheptameric ring; assay: EMSA; remark: listed apart in the source

Row | Binder | binding result [1] | binding result [2]
1 | B1 | binds | –
2 | UACAAAGAGAUUUAUUUCGUUUU (ssRNA, 3'-phosphate) [U6_WT] | – | binds

Source: publication PMC9860250
